# Measured values reported in publication PMC6340141.
# B1: native KCC2 (neuron-specific K+-Cl- cotransporter), Q91V14 1-1138 (natural protein)
# chain: MSRRFTVTSLPPAASAASADPESRRHSVADPRRLPREDVKGDGNPKESSPFINSTDTEKGREYDGRNMALFEEEMDTSPMVSSLLSGLANYTNLPQGSREHEEAENNEGGKKKPVQAPRMGTFMGVYLPCLQNIFGVILFLRLTWVVGIAGIMESFCMVFICCSCTMLTAISMSAIATNGVVPAGGSYYMISRSLGPEFGGAVGLCFYLGTTFAGAMYILGTIEILLAYLFPAMAIFKAEDASGEAAAMLNNMRVYGTCVLTCMATVVFVGVKYVNKFALVFLGCVILSILAIYAGVIKSAFDPPNFPICLLGNRTLSRHGFDVCAKLAWEGNETVTTRLWGLFCSSRLLNATCDEYFTRNNVTEIQGIPGAASGLIKENLWSSYLTKGVIVERRGMPSVGLADGTPVDMDHPYVFSDMTSYFTLLVGIYFPSVTGIMAGSNRSGDLRDAQKSIPTGTILAIATTSAVYISSVVLFGACIEGVVLRDKFGEAVNGNLVVGTLAWPSPWVIVIGSFFSTCGAGLQSLTGAPRLLQAISRDGIVPFLQVFGHGKANGEPTWALLLTACICEIGILIASLDEVAPILSMFFLMCYMFVNLACAVQTLLRTPNWRPRFRYYHWTLSFLGMSLCLALMFICSWYYALVAMLIAGLIYKYIEYRGAEKEWGDGIRGLSLSAARYALLRLEEGPPHTKNWRPQLLVLVRVDQDQNVVHPQLLSLTSQLKAGKGLTIVGSVLEGTFLDNHPQAQRAEESIRRLMEAEKVKGFCQVVISSNLRDGVSHLIQSGGLGGLQHNTVLVGWPRNWRQKEDHQTWRNFIELVRETTAGHLALLVTKNVSMFPGNPERFSEGSIDVWWIVHDGGMLMLLPFLLRHHKVWRKCKMRIFTVAQMDDNSIQMKKDLTTFLYHLRITAEVEVVEMHESDISAYTYEKTLVMEQRSQILKQMHLTKNEREREIQSITDESRGSIRRKNPANPRLRLNVPEETACDNEEKPEEEVQLIHDQSAPSCPSSSPSPGEEPEGERETDPEVHLTWTKDKSVAEKNKGPSPVSSEGIKDFFSMKPEWENLNQSNVRRMHTAVRLNEVIVNKSRDAKLVLLNMPGPPRNRNGDENYMEFLEVLTEQLDRVMLVRGGGREVITIYS
# Target: T1, native KCC2 (neuron-specific K+-Cl- cotransporter) (mouse (endogenous in mouse brain)), Q91V14
# T1 chain: B1 chain
# Assay: native gel or EMSA
# Conditions: remark: other sources report otherwise
binder,measurement,value
B1,stoichiometry N,4
